Source: publication PMC10692165, “Structural basis of antibody inhibition and chemokine activation of the human CC chemokine receptor 8” (Nature Communications, 2023)
Values joined by “and” are separate entries in the source; they are usually repeats but may differ in a detail not shown here. Identical values can stand only once. One block for each molecule: values may come before it.

Key:
[1] = biological target: human CCR8 on CHO cells stably expressing human CCR8 (CHO.hCCR8) (human) (UniProt P51685); experiment: real-time cell binding (LigandTracer); hCCL1^AF647 added at 0.5, 10 and 50 nM in sequence to CHO.hCCR8 cells at room temperature, then dissociation in medium; signal of CHO wild-type cells subtracted; one-to-two step model
Sequence of human CCR8 on CHO cells stably expressing human CCR8 (CHO.hCCR8) (human) (P51685 whole entry): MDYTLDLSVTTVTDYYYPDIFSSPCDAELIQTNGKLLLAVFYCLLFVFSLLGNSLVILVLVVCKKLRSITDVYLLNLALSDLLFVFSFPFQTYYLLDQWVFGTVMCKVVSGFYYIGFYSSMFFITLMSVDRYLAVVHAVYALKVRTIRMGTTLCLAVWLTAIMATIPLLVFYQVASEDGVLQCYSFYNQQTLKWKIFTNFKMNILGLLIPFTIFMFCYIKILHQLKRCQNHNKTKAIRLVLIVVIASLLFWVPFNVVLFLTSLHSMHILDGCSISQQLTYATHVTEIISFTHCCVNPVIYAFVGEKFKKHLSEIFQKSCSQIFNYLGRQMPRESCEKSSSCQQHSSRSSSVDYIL

[2] = biological target: T1, human CCR8 on CHO cells stably expressing human CCR8 (CHO.hCCR8) (Homo sapiens, UniProt P51685); experiment: cell-based or functional assay
T1 sequence (P51685 whole entry): as above

[3] = biological target: T1, human CCR8 on CHO cells stably …; experiment: radioligand binding; unlabeled mAb1 (from 50 nM, 1:3 dilutions) against a fixed concentration of 125I-mAb1 on CHO.CCR8 cells, room temperature, 18 h; heterologous one site-fit Ki competitive binding model; three independent experiments, not averaged; details: one partner purified

KD of the high affinity binding event (slow on, slow off) [1]: 0.7 nM
KD of the low affinity binding event (fast on, fast off) [1]: 15 nM
Kd [1]: 1 nM
Molecule: AlexaFluor647-labeled human CCL1 (hCCL1^AF647) (from UniProt P22362 24-96) (ligand)

Ca^2+ influx (FLIPR) in CHO.hCCR8 cells: inhibition of the signal induced by a sub-maximal (EC80) concentration of CCL1 (blocks CCL1-CCR8); apparent IC50 [2]: 57.9 nM
Kd [3]: 0.0284 nM
Ki [3]: 0.0414 nM and 0.0555 nM
B1: anti-human CCR8 antibody mAb1 (IgG) (antibody, V domains shown)
VH: QSVEESGGRLVTPGTPLTLTCTVSGFSLSNYAMIWVRQAPGEGLEWVGTISLGGYTYYANWAKGRFTISKTSTTVDLKISSPTTEDTATYFCARARWSTDSAIYTYAFDPWGPGTLVTVSS
VL: AYDMTQTPASVEVAVGGTVTIKCQASQSISSYLSWYQQKPGQRPELLIYKASTLASGVSSRFKGSGSGTQFTLTISDLEAADAATYYCQQGYTSSNIDNIFGGGTEVVVK
notes: variable region and CH1 as the heavy chain of Fab1, deposited in PDB 8TLM; as the light chain of Fab1, deposited in PDB 8TLM; Raised in rabbits; a humanized version was also made; the IgG was detected with anti-human IgG (Fc) secondaries; In the radioligand assay the tracer was 125I-labelled mAb1 (random tyrosines); also called anti-hCCR8 mAb1; anti-CCR8 mAb1
